# Source: patent US20240174744A1 (SCIRHOM, published 2024)
# T1: hiR2-FL-P533-T7 (human iRhom2 full length with deletion of P533, 3 x T7 tag) (human, UniProt Q6PJF5 1-856)
# T1 construct: The change is a deletion of one residue, not a substitution
# T1 sequence: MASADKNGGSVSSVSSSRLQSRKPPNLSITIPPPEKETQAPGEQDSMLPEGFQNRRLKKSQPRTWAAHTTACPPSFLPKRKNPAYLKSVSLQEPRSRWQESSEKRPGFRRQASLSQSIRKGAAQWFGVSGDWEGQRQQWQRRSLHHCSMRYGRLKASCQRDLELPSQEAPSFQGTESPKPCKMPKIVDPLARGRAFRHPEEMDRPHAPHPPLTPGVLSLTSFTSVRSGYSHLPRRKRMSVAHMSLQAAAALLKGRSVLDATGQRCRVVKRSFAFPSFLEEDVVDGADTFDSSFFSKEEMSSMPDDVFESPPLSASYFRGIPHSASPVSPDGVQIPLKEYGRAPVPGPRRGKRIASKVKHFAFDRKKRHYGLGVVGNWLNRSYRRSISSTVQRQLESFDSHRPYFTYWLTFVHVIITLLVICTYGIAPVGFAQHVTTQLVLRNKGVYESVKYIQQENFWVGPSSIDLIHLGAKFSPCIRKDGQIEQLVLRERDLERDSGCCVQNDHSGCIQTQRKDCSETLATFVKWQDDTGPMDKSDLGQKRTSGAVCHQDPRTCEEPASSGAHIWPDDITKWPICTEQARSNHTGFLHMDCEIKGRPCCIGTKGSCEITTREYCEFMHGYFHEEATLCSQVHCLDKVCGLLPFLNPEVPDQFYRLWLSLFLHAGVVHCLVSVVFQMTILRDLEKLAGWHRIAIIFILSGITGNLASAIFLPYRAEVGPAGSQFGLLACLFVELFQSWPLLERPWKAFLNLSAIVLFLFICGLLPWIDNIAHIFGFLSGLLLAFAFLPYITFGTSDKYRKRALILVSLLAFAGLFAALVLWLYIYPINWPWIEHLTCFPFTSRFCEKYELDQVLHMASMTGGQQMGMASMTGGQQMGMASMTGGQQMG
# T2: hiR1-FL-WT-T7 (human iRhom1 full length wild type C-terminally tagged with 3 consecutive copies of the T7 … (human, UniProt Q96CC6 1-855))
# T2 construct: also called human iRhom1 variant expressed by MEF-DKO-hiR1-FL-WT-T7 cells
# T2 sequence: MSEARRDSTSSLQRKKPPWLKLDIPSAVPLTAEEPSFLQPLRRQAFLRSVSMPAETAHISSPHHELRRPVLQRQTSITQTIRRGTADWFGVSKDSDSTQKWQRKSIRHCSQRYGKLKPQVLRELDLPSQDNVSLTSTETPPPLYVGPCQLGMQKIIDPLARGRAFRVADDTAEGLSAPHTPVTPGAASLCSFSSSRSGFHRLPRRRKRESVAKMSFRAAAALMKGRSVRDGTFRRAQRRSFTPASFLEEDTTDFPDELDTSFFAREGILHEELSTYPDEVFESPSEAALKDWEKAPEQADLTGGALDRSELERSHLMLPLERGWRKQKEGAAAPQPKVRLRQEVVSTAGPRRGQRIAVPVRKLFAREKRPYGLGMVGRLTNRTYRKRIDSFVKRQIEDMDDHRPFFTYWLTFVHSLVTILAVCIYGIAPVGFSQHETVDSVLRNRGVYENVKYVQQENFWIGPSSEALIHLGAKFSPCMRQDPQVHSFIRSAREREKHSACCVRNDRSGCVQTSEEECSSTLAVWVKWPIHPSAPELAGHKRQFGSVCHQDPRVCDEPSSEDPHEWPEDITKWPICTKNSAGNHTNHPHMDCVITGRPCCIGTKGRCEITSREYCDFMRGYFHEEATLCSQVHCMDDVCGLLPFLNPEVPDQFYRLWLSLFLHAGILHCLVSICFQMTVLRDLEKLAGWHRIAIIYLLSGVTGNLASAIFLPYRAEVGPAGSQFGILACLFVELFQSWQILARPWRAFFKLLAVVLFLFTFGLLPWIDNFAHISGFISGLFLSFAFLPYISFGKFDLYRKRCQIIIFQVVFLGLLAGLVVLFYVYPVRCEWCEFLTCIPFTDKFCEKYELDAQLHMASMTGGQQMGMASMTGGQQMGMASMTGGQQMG
# Legend:
# [1] = target: T1, hiR2-FL-P533-T7 (human iRhom2 full …); test: FACS on cells of the row P533-
# [2] = target: T2, hiR1-FL-WT-T7 (human iRhom1 full length …); test: FACS on cells of the row human iR1 wild type, vs human iR2 wild type = 100%
Binder,binding result [1],grade of loss of binding vs wild type [2]
"antibody 43 (antibody, V domains shown, Mouse IgG, kappa light chain; also called clone #43) VH: QVALKESGPGILQPSQTLSLTCSFSGFSLSTFGMGVGWIRQSSGKGLEWLANIWWDDDKYYNPALKSRLTISKDASKNQAFLKIANVDTADTATYYCARIGNYGSNYWYFDVWGTGTTVTVSS VL: QIVLTQSPAIMSASPGERVTMTCSANSRISYMYWYQQKPGSSPRLLIYDTSNLASGVPVRFSGSGSGTSYSLTISRMEAEDAATYNCQQWSSYPLTFGAGTKLELK",no binding (tested: 3 µg/ml),3 grade (3 => 95% loss of binding vs wild type)
"antibody 44 (antibody, V domains shown, Mouse IgG, kappa light chain; also called clone #44; m44) VH: QVTLKESGPGILQPSQTLSLTCSFSGFSLSTFGMGVGWIRQPSEKGLEWLAHIWWDDDKYYNPALKSRLTISKDTSKNQIFLKITNVDTAETATYYCSRIGNYGSNYWYFDVWGTGTTVTVSS VL: QIVLTQSPAVMSASPGEKVTMTCTASSSVYYMYWYQQTPGSSPRLLIYDTSNLASGVPVRFSGSGSGTSYSLTISRMEAEDAATYYCQQWNTYPLTFGAGTKLELK",no binding (tested: 3 µg/ml),3 grade (3 => 95% loss of binding vs wild type)
"antibody 16 (antibody, V domains shown, Mouse IgG, kappa light chain; also called clone #16; m16) VH: QVTLKESGPGILQPSQTLSLTCSFSGFSLSTFALGVGWIRQPSGRGLEWLAHIWWDDDKYYNPALKSRLTISKDTSKNHVFLKIANVDTADTATYYCARITTYYYGMDYWGQGTSVTVSS VL: DIVLSQSPATLSVTPGDSVSLFCRASQSIGNHLHWYQQESHASPRLLIKYASQSISGIPSRFSGSGSGTDFTLSINSVETEDFGMYFCQQSYNWPLTFGAGTKLELK",no binding (tested: 3 µg/ml),3 grade (3 => 95% loss of binding vs wild type)
"antibody 5 (antibody, V domains shown, Mouse IgG, kappa light chain; also called clone #5; purified antibody 5) VH: QVTLKESGPGILQPSQTLSLTCSFSGFSLSTFGMGVGWIRQPSGKGLEWLAHIWWDDEKYYNSALKSRLTISKATSKNQAFLKIANVDTADTATYYCARISNYGSNYWYFNVWGTGTTVTVSS VL: QVVLTQSPALMSASPGEKVTMTCSAGSSVSCMYWYQQKPGSSPRVLIYDTSNLASGVPARFTGSGSGTSYSLTISRMEAEDAASYYCQQWNSYPLTFGAGTKLELK",no binding (tested: 3 µg/ml),3 grade (3 => 95% loss of binding vs wild type)
"antibody 22 (antibody, V domains shown, Mouse IgG, kappa light chain; also called clone #22; m22) VH: QVTLKESGPGILQPSQTLSLTCSFSGFSLSTFGMGVGWIRQPSGKGLEWLAHIWWDDEKYYNSALKSRLTISKATSKNQVFLKIANVDTADTATYYCARISNYGSNYWYFNVWGTGTTVTVSS VL: QVVLTQSPALMSASPGEKVTMTCSAGSSVSYMYWYQQKPGSSPRVLIYDTSNLASGVPARFTGSGSGTSYSLTISRMEAEDAATYYCQQWNSYPLTFGAGTKLELK",no binding (tested: 3 µg/ml),3 grade (3 => 95% loss of binding vs wild type)
"antibody 42 (antibody, V domains shown, Mouse IgG, kappa light chain; also called clone #42; m42) VH: QVTLKESGPGILQPSQTLSLTCSLSGFSLSTFGRGVGWIRQPSGKGLEWLAHIWWDDEKYYNPALKSRLTISKDTSKNQVFLRIANVDTADTATYYCARIQNYGSNYWYFDVWGTGTTVTVSS VL: LIVLTQSPAIMSASPGEKVTMTCGATSRISYMFWYQQKPGSSPRVLIYDTSNLASGVPVRFSGSGSGTSYSLTISRVEAEDVATYYCQQWNSYPLTFGAGTKLELK",no binding (tested: 3 µg/ml),3 grade (3 => 95% loss of binding vs wild type)
"antibody 3 (antibody, V domains shown, Mouse IgG, kappa light chain; also called clone #3; purified antibody 3) VH: QVTLKESGPGILQPSQTLSLTCSFSGFSLTTFAMGIGWVRQPSGKGLEWLAHIWWDGEKYNNPVLKSRLTISKDTSKNQVFLRIANVDTPDTATYYCARISSIYYIIDNWGQGTSVTVSS VL: DIVLTQSPATLSVTPGHSVSLSCRASQSISNNLHWYQKKSHESPRLLIKYVSQSISGIPSRFSGSGSGTDFTLSINSVETEDFGMYFCQQSYNWPLTFGAGTKLELK",,3 grade (3 => 95% loss of binding vs wild type)
"antibody 34 (antibody, V domains shown, Mouse IgG, kappa light chain; also called clone #34; m34) VH: QVTLKESGPGILQPSQTLSLTCSFSGFSLSTFSLGVGWIRQSSGKGLEWLAHIWWDDEKYYNPALKSRLTISKDTSKNQVFLKIANVDAADTATYYCARAYYSKSYYALDYWGQGTSVTVSS VL: DIQMTQSPSSLSASLGERVSLTCRASQEISGYLSWLQQKPDGTIKRLIYAASTLDSGVPKRFSGSRSGSDYSLAISSLESEDFADYYCLQYANFPFTFGSGTKLEIK",no binding (tested: 3 µg/ml),3 grade (3 => 95% loss of binding vs wild type)
"antibody 50 (antibody, V domains shown, Mouse IgG, kappa light chain; also called clone #50; purified antibody 50) VH: QVQLQQSGAELVRPGASVKVSCKASGYAFSNYLIEWVKQRPGQGLEWIGVINPGSGFTKYNEKFKGKATLTADKSSSTAYMQLSSLTSEDSAVYFCARGLYRAMDYWGQGTSVTVSS VL: DIQMTQSPASQSASLGESVTITCLASQTIGTWLAWYQQKPGKSPQLLIYAAASLADGVPSRFSGGGSGTKFSFKISSLQAEDFVNYYCQQIYSTPYTFGGGTKLEIK",,3 grade (3 => 95% loss of binding vs wild type)
